# Assay results as given in article PMC3510253 (PLoS Pathogens, 2012).
# B1: Glutathione-S-transferase (GST)-NS1 fusion protein (PR8) (natural protein)
# chain: MDPNTVSSFQVDCFLWHVRKRVADQELGDAPFLDRLRRDQKSLRGRGSTLGLDIETATRAGKQIVERILKEESDEALKMTMASVPASRYLTDMTLEEMSRDWSMLIPKQKVAGPLCIRMDQAIMDKNIILKANFSVIFDRLETLILLRAFTEEGAIVGEISPLPSLPGHTAEDVKNAVGVLIGGLEWNDNTVRVSETLQRFAWRSSNENGRPPLTPKQKREMAGTIRSEV
# notes: source: bacteria, purified
# Biological target: T1, MBP-human TRIM25-Flag (human, UniProt Q14258 1-630)
# T1 construct: human TRIM25
# T1 sequence (Q14258 whole entry): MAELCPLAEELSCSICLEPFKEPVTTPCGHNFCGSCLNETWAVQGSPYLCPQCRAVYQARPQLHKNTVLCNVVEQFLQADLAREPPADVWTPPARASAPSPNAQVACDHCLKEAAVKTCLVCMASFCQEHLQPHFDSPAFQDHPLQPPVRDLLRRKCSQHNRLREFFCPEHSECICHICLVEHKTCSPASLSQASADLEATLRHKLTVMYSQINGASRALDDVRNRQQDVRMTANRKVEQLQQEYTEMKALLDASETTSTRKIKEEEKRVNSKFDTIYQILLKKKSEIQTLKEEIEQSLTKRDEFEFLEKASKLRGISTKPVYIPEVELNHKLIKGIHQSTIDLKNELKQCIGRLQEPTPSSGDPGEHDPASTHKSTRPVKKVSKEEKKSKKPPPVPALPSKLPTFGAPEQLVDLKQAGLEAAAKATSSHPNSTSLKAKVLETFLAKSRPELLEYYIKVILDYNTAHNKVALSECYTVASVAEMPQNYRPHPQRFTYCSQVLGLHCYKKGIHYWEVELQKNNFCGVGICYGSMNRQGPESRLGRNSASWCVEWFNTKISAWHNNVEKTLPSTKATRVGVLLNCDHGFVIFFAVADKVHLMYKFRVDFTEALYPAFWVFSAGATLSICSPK
# Experiment: pull-down
# Conditions: both partners purified
binder,measurement,value
B1,binding result,binds
